The results in this text go back to publication PMC9290910, “Neuropilin‐1 is required for endothelial cell adhesion to soluble vascular endothelial growth factor receptor 1” (The Febs Journal, 2021).

For experiment [1], the system named is sVEGFR‐1. Kind of experiment: SPR, α5β1 integrin binding to immobilized sVEGFR‐1. On the set-up: species or system human. The following applies: sVEGFR‐1 immobilized, α5β1 integrin 80 nM-1 μM. On the procedure: Fig. 7 sVEGFR‐1/α5β1 integrin interaction. (A) SPR analysis of the interaction between sVEGFR‐1 and α5β1 integrin. sVEGFR‐1 is immobilized on sensor chips and α5β1 integrin is injected at different concentrations (from bottom to top: 80 nM, cyan; 160 nM, red; 350 nM, green; 600 nM, blue; and 1 μM, black). […] (B) Secondary structure representation of the 3D structure of VEGFR‐1 Ig‐like domain II. β‐strands are represented by arrows and labelled from A to H; loops are shown as tubular ribbons; the N‐ and C‐terminal ends of the domain are indicated by labels. Colour coding: peptide 12 (interacting with α5β1 integrin) is blue; Flt2‐11 peptide (interacting with NRP‐1) is yellow in the five‐residue NITVT region corresponding to the Flt2‐5 peptide (see text), and green in the remaining six‐residues region; the rest of the domain is magenta. (C) Proposed mechanism of action of Flt2‐11 peptide. Left: Light blue arrows indicate the high‐affinity interactions: (i) between NRP‐1 (yellow) and α5β1 integrin (black) on the EC membrane; and (ii) between NRP‐1 on the EC membrane and the sVEGFR‐1 substrate (green). The dark blue arrow indicates the low‐affinity interaction between α5β1 integrin on the EC membrane and the sVEGFR‐1 substrate. The low‐affinity interaction is stabilized by the two high‐affinity interactions, and the angiogenic stimulus is triggered. Centre: The Flt2‐11 peptide inhibits the high‐affinity interaction between NRP‐1 on the EC membrane and the sVEGFR‐1 substrate. The low‐affinity interaction between α5β1 integrin on ECs and the sVEGFR‐1 substrate is not sufficiently stable to trigger the angiogenic stimulus that starts upon integrin engagement. […]
(§1) SPR experiments were carried out using a BIACORE X system (Biacore AB, Uppsala, Sweden). […] The reaction was carried out in 20 mM sodium acetate at pH 5.0, which is about 2 points below the theoretical NRP‐1 isoelectric point calculated using the program pI‐tool. […]
(In general: SPR reads the build-up and loss of mass on a sensor chip optically.)

The test system of experiment [2] is NRP‐1. The experiment is described as follows: SPR, α5β1 integrin binding to immobilized NRP‐1. On the set-up: species or system human. The following applies: NRP‐1 immobilized, α5β1 integrin 20-500 nM. As to the method: SPR analysis of NRP‐1 interaction with α5β1 integrin or semaphorin 3A, in the absence or presence of Flt2‐11 peptide or ‘scrambled’ Flt2‐11. NRP‐1 is immobilized on sensor chip. (A) α5β1 integrin is injected at different concentrations (from bottom to top: 20 nM, cyan; 40 nM, red; 100 nM, green; 200 nM, blue; and 500 nM, black). […] (B) α5β1 integrin is injected at 200 nM concentration together with either Flt2‐11 peptide or scrambled Flt2‐11 peptide at different concentrations (no peptides, black; Flt2‐11 peptide […] and 20 μM, blue and cyan, respectively; scrambled Flt2‐11 peptide at 2 μM and 20 μM, red and purple, respectively). (C) Semaphorin 3A is injected at different concentrations (from bottom to top: 20 nM, cyan; 30 nM, red; 50 nM, green; 200 nM, blue; and 500 nM, black). […] (D) Semaphorin 3A is injected at 200 nM, and peptide Flt2‐11 at different concentrations (no peptides, black; Flt2‐11 peptide 1 μM and 10 μM blue and cyan, respectively; scrambled Flt2‐11 peptide 50 μM, red).
as §1
RU express the mass concentration‐dependent changes in the observed SPR signal, that is, the refractive index on the sensor chip surface. Changes in this signal are determined by the interaction between the immobilized protein (i.e., either NRP‐1 or VEGFR‐1) with the analyte protein (i.e., VEGFR‐1/Fc, α5β1 integrin or semaphorin 3A). […] Global fitting analyses of association and dissociation data for all ligand concentrations were carried out using BIAEVALUATION software 3.0 (Biacore, Uppsala, Sweden), which allows the ratio between association and dissociation constants (k on/k off) to be accurately determined. […]

For experiment [3], the target named is T1, Recombinant human NRP‐1 (human, UniProt O14786 22-856).
T1 construct: Neuropilin-1, human, recombinant soluble protein; see the vendor's datasheet (as far as I recall an extracellular fragment with a C-terminal His tag); also called Neuropilin‐1; soluble NRP‐1; source: bought: R&D Systems (3870‐N1)
T1 sequence (looked up): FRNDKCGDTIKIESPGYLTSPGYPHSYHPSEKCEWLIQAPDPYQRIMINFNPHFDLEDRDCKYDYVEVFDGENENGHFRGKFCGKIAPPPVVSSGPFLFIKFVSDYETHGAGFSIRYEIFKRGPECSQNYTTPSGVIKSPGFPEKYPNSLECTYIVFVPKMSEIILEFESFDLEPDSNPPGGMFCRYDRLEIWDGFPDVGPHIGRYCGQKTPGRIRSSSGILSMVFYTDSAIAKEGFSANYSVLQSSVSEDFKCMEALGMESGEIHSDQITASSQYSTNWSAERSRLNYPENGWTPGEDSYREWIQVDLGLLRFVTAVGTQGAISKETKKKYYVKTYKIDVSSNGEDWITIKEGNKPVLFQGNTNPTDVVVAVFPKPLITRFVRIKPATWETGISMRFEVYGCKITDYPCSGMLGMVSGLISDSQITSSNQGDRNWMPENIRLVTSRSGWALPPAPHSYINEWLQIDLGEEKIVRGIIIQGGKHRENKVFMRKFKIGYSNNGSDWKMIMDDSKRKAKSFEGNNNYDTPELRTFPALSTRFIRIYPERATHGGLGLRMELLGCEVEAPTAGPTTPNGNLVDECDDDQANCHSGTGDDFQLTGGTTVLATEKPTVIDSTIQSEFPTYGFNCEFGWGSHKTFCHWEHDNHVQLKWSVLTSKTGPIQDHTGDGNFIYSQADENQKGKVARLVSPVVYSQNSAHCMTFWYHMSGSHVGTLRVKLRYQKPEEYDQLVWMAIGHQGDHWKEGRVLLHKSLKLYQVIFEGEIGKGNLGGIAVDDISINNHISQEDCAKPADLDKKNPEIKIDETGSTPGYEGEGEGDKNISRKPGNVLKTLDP
Kind of experiment: SPR; BIACORE X, CM5; NRP-1 immobilised by amine coupling; analyte in HEPES-buffered saline (10 mM HEPES pH 7.4, 150 mM NaCl, 0.005% P20); global 1:1 Langmuir fit. The following applies: both partners purified.

Experiment [4] has as its system NRP‐1. The experiment is described as follows: SPR, semaphorin 3A binding to immobilized NRP‐1. On the set-up: species or system human. The following applies: NRP‐1 immobilized, semaphorin 3A 20-500 nM. As to the method:
SPR analysis of NRP‐1 interaction with α5β1 integrin or semaphorin 3A, in the absence or presence of Flt2‐11 peptide or ‘scrambled’ Flt2‐11. NRP‐1 is immobilized on sensor chip. (A) α5β1 integrin is injected at different concentrations (from bottom to top: 20 nM, cyan; 40 nM, red; 100 nM, green; 200 nM, blue; and 500 nM, black). […] (B) α5β1 integrin is injected at 200 nM concentration together with either Flt2‐11 peptide or scrambled Flt2‐11 peptide at different concentrations (no peptides, black; Flt2‐11 peptide […] and 20 μM, blue and cyan, respectively; scrambled Flt2‐11 peptide at 2 μM and 20 μM, red and purple, respectively). (C) Semaphorin 3A is injected at different concentrations (from bottom to top: 20 nM, cyan; 30 nM, red; 50 nM, green; 200 nM, blue; and 500 nM, black). […]
as §1
RU express the mass concentration‐dependent changes in the observed SPR signal, that is, the refractive index on the sensor chip surface. Changes in this signal are determined by the interaction between the immobilized protein (i.e., either NRP‐1 or VEGFR‐1) with the analyte protein (i.e., VEGFR‐1/Fc, α5β1 integrin or semaphorin 3A). […]

Experiment [5] concerns the target T2, Purified α5β1 integrin (UniProt P08648 42-1049; P05556 21-728).
T2 construct: integrin alpha-5 subunit; integrin beta-1 subunit; As far as I recall this product is purified from human tissue; also called integrin α5β1; source: bought: Merck Millipore (CC1052), purified, octyl‐β‐D‐glucopyranoside formulation
The experiment is described as follows: SPR; BIACORE X, CM5; VEGFR-1/Fc captured (about 200 RU) on amine-coupled protein A; α5β1 integrin injected; HEPES-buffered saline (10 mM HEPES pH 7.4, 150 mM NaCl, 0.005% P20); 1:1 Langmuir fit. To be noted: both partners purified.

T2 sequence (P08648 42-1049, chain 1 of 2): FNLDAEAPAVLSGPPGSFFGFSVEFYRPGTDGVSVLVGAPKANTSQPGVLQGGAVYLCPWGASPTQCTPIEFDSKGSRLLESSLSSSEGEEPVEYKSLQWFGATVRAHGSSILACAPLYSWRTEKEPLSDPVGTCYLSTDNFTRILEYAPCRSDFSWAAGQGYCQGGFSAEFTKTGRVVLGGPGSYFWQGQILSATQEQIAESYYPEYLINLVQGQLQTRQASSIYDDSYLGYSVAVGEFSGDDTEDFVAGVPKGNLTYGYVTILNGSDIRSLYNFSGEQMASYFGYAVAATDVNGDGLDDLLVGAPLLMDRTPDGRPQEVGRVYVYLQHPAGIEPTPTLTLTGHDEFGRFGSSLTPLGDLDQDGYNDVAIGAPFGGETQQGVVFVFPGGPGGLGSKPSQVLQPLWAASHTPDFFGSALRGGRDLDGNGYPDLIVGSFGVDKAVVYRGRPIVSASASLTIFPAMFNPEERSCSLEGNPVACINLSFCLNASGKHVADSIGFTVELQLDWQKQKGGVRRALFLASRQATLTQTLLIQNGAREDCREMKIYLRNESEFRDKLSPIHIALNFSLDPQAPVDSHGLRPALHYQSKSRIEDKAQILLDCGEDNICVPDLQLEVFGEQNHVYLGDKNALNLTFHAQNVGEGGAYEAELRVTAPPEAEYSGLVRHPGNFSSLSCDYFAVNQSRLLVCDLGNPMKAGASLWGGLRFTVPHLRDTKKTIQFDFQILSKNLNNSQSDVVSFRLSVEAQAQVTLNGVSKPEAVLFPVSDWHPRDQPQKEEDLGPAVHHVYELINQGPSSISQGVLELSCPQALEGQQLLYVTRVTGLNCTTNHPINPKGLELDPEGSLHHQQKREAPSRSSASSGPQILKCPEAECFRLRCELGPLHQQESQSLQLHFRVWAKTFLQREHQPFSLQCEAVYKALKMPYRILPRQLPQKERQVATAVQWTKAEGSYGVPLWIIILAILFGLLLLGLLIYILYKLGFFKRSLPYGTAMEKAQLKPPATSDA
T2 sequence (P05556 21-728, chain 2 of 2): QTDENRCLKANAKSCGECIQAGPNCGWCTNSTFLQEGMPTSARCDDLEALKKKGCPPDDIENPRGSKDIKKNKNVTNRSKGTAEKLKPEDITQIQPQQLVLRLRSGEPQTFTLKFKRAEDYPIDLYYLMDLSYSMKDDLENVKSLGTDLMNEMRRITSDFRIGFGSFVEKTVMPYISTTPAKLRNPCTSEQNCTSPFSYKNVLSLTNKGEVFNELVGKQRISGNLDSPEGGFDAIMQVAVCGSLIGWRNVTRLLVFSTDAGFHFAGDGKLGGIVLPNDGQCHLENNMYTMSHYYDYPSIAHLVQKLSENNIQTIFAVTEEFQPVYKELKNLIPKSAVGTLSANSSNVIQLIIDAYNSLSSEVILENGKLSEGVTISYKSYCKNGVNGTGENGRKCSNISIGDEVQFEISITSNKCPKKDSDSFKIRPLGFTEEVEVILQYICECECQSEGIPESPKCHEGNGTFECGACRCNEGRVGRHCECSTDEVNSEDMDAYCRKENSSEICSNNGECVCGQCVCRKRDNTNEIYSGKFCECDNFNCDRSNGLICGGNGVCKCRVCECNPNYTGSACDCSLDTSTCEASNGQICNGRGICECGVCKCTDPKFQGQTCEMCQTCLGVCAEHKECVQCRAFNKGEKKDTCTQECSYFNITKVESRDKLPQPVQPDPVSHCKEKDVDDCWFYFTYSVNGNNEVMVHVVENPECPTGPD

With “α5β1 integrin: Purified α5β1 integrin (CC1052), Merck Millipore”, the k off in experiment [1] and in experiment [2] was 0.00029 s⁻¹ each time. In addition, the k on worked out at 1500 M⁻¹ s⁻¹ in experiment [1] and 21000 M⁻¹ s⁻¹ in experiment [2]. Also, the Kd was found to be 195 ± 40 nM in experiment [1] (read-out: K D, sVEGFR‐1/α5β1 integrin) and 14 ± 4 nM in experiment [2] (read-out: K D, NRP‐1/α5β1 integrin).

B1: semaphorin 3A (ligand)
chain: NYQNGKNNVPRLKLSYKEMLESNNVITFNGLANSSSYHTFLLDEERSRLYVGAKDHIFSFDLVNIKDFQKIVWPVSYTRRDECKWAGKDILKECANFIKVLKAYNQTHLYACGTGAFHPICTYIEIGHHPEDNIFKLENSHFENGRGKSPYDPKLLTASLLIDGELYSGTAADFMGRDFAIFRTLGHHHPIRTEQHDSRWLNDPKFISAHLISESDNPEDDKVYFFFRENAIDGEHSGKATHARIGQICKNDFGGHRSLVNKWTTFLKARLICSVPGPNGIDTHFDELQDVFLMNFKDPKNPVVYGVFTTSSNIFKGSAVCMYSMSDVRRVFLGPYAHRDGPNYQWVPYQGRVPYPRPGTCPSKTFGGFDSTKDLPDDVITFARSHPAMYNPVFPMNNRPIVIKTDVNYQFTQIVVDRVDAEDGQYDVMFIGTDVGTVLKVVSIPKETWYDLEEVLLEEMTVFREPTAISAMELSTKQQQLYIGSTAGVAQLPLHRCDIYGKACAECCLARDPYCAWDGSACSRYFPTAKRRTRRQDIRNGDPLTHCSDLHHDNHHGHSPEERIIYGVENSSTFLECSPKSQRALVYWQFQRRNEERKEEIRVDDHIIRTDQGLLLRSLQQKDSGNYLCHAVEHGFIQTLLKVTLEVIDTEHLEELLHKDDDGDGSKTKEMSNSMTPSQKVWYRDFMQLINHPNLNTMDEFCEQVWKRDRKQRRQRPGHTPGNSNKWKHLQENKKGRNRRTHEFERAPRSV
Consider B1, for which, in experiment [3], the Kd stood at 24 ± 6 nM, the off-rate constant (koff) came to 9e-05 s⁻¹ and the kon came out at 3700 M⁻¹ s⁻¹. In experiment [4], this molecule returned a k off of 9e-05 s⁻¹ and a k on of 3700 M⁻¹ s⁻¹.

B2: Recombinant human VEGFR‐1/Fc (Fc fusion, UniProt P17948 27-758, looked up)
chain: SKLKDPELSLKGTQHIMQAGQTLHLQCRGEAAHKWSLPEMVSKESERLSITKSACGRNGKQFCSTLTLNTAQANHTGFYSCKYLAVPTSKKKETESAIYIFISDTGRPFVEMYSEIPEIIHMTEGRELVIPCRVTSPNITVTLKKFPLDTLIPDGKRIIWDSRKGFIISNATYKEIGLLTCEATVNGHLYKTNYLTHRQTNTIIDVQISTPRPVKLLRGHTLVLNCTATTPLNTRVQMTWSYPDEKNKRASVRRRIDQSNSHANIFYSVLTIDKMQNKDKGLYTCRVRSGPSFKSVNTSVHIYDKAFITVKHRKQQVLETVAGKRSYRLSMKVKAFPSPEVVWLKDGLPATEKSARYLTRGYSLIIKDVTEEDAGNYTILLSIKQSNVFKNLTATLIVNVKPQIYEKAVSSFPDPALYPLGSRQILTCTAYGIPQPTIKWFWHPCNHNHSEARCDFCSNNEESFILDADSNMGNRIESITQRMAIIEGKNKMASTLVVADSRISGIYICIASNKVGTVGRNISFYITDVPNGFHVNLEKMPTEGEDLKLSCTVNKFLYRDVTWILLRTVNNRTMHYSISKQKMAITKEHSITLNLTIMNVSLQDSGTYACRARNVYTGEEILQKKEITIRDQEAPYLLRNLSDHTVAISSSTTLDCHANGVPEPQITWFKNNHKIQQEPGIILGPGSSTLFIERVTEEDEGVYHCKATNQKGSVESSAYLTVQGTSDKSNLE
notes: VEGFR-1 (Flt-1), human, recombinant Fc chimera; also called sVEGFR‐1; sVEGFR‐1/Fc; source: bought: R&D Systems (321‐FL‐050)
Take B2: in experiment [3], the Kd was found to be 25 ± 4 nM, the koff came to 0.0003 s⁻¹ and the kon stood at 12000 M⁻¹ s⁻¹. In addition, in experiment [5], the Kd was 195 ± 40 nM, the koff is 0.00029 s⁻¹ and the kon was determined as 1500 M⁻¹ s⁻¹.

What is called koff is a measure of how fast the partners let go of each other. In general, kon refers to the second-order rate constant of association.
